Reference: paper PMC2206118

Key:
FIR1+2 WT (FIR RRM1+2) [1] = molecular target: T1, FIR1+2 WT (FIR RRM1+2) (human, UniProt Q9UHX1-2 101-299, R106G;C112S;C238A); assay: X-ray crystallography
FIR1+2 F157L = FIR1+2 F157L (human, UniProt Q9UHX1-2 101-299, R106G;C112S;C238A;F157L); assay: fluorescence anisotropy
FIR1+2 Y115L = FIR1+2 Y115L (human, UniProt Q9UHX1-2 101-299, R106G;C112S;C238A;Y115L); assay: fluorescence anisotropy
FIR1+2 WT (FIR RRM1+2) [2] = molecular target: T1, FIR1+2 WT (FIR RRM1+2); assay: fluorescence anisotropy
FIR1+2 F254L = FIR1+2 F254L (human, UniProt Q9UHX1-2 101-299, R106G;C112S;C238A;F254L); assay: fluorescence anisotropy
Chain of FIR1+2 F254L (Q9UHX1 118-316 R123G/C129S/C255A/F271L): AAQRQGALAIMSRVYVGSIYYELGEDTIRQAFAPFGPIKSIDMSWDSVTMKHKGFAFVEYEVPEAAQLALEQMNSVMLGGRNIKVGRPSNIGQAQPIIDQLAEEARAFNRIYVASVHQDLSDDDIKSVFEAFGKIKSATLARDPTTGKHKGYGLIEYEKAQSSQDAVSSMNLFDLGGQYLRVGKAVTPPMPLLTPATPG

T1 sequence (Q9UHX1 118-316 R123G/C129S/C255A): as the sequence (Q9UHX1 118-316 R123G/C129S/C255A/F271L) above, with L154F counted along it
Chain of FIR1+2 F157L (Q9UHX1 118-316 R123G/C129S/F174L/C255A): as the sequence (Q9UHX1 118-316 R123G/C129S/C255A/F271L) above, with F57L, L154F counted along it
Chain of FIR1+2 Y115L (Q9UHX1 118-316 R123G/C129S/Y132L/C255A): as the sequence (Q9UHX1 118-316 R123G/C129S/C255A/F271L) above, with Y15L, L154F counted along it

Binder | binding result (FIR1+2 WT (FIR RRM1+2) [1]) | Kd (FIR1+2 F157L) | Kd (FIR1+2 Y115L) | Kd (FIR1+2 WT (FIR RRM1+2) [2]) | Kd (FIR1+2 F254L)
TCGGGATTTTTTATTTTGTGTTATT (ssDNA) [H25 (FUSE)] | binds |  |  |  | 
CCTCGGGATTTTTTATTTTGTGTTATT (ssDNA) [H27 (FUSE), fluorescein] |  | 140 ± 85 µM | 81 ± 31 µM | 2.3 ± 1.8 µM | 0.17 ± 0.13 µM
